The text below walks through data of US20220305128.

The data set deals with NF-kB (endogenous, A549 cells) (Homo sapiens). The data set can be described thus: cell_activity. As to conditions: A549 MTT, 1 pmol RNA transfected; 89% day 1; indirect readout.

The sequence “AAAAAAAAAAGAUCUUGAAACUGUUUUAAGGUUGGCCGAUCUUAAAAAA [NF-kB aptamer, circular RNA]” showed an activity (% viability day 2) of 86.
